Molecular target: T1, His6-tagged M. tuberculosis PpiA (cyclophilin A) (Mycobacterium tuberculosis H37Rv, UniProt P9WHW3 1-182)
T1 construct: also called Rv0009; MTBPPIA
Test: native gel or EMSA
Conditions: both partners purified

B1: purified M. tuberculosis Ef-Tu (Tuf) (natural protein)
chain: not shown
Does B1 bind?
Result: binds

Source: paper PMC3913756, “Mycobacterium tuberculosis Cyclophilin A Uses Novel Signal Sequence for Secretion and Mimics Eukaryotic Cyclophilins for Interaction with Host Protein Repertoire” (PLoS ONE, 2014)
